Target: T1, PD-1 on circulating T cells of patients (human, UniProt Q15116 25-288)
T1 construct: whole, on cells; Probably the same protein as m2
Assay: receptor occupancy by flow cytometry on blood of patients treated with DART-D
Protocol: Receptor Occupancy (RO): One hundred microliter […] volumes of whole blood samples (per time point/per patient) were incubated with saturating concentration of DART-D, followed by lysis and detection of DART-D by biotinylated anti-drug mAb/Strep-PE in “DART-D-spiked” and control samples. After subtraction of background fluorescence (Step-PE only), RO values were calculated as a fraction of maximal binding capacity: RO=(untreated MFI(PE)−background MFI(PE))/(treated MFI(PE)−background MFI(PE)).

T1 sequence (Q15116 25-288): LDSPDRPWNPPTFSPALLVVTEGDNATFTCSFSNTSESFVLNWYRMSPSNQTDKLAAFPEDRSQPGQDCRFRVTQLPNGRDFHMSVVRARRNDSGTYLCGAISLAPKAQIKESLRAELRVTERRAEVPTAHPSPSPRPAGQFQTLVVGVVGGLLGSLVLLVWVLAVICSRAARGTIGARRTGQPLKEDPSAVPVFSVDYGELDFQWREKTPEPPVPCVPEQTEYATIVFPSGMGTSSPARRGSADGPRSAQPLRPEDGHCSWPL

B1: DART-D (bispecific antibody, human IgG4 S228P)
chain 1: EIVLTQSPATLSLSPGERATLSCRASESVDNYGMSFMNWFQQKPGQPPKLLIHAASNQGSGVPSRFSGSGSGTDFTLTISSLEPEDFAVYFCQQSKEVPYTFGGGTKVEIKGGGSGGGGQVQLVESGGGVVQPGRSLRLSCAASGFTFSSYTMHWVRQAPGKGLEWVTFISYDGSNKHYADSVKGRFTVSRDNSKNTLYLQMNSLRAEDTAIYYCARTGWLGPFDYWGQGTLVTVSSGGCGGGEVAACEKEVAALEKEVAALEKEVAALEKESKYGPPCPPCPAPEFLGGPSVFLFPPKPKDTLYITREPEVTCVVVDVSQEDPEVQFNWYVDGVEVHNAKTKPREEQFNSTYRVVSVLTVLHQDWLNGKEYKCKVSNKGLPSSIEKTISKAKGQPREPQVYTLPPSQEEMTKNQVSLTCLVKGFYPSDIAVEWESNGQPENNYKTTPPVLDSDGSFFLYSRLTVDKSRWQEGNVFSCSVMHEALHNHYTQKSLSLSLG
chain 2: not shown
notes: Tetravalent (2x2) four-chain Fc-bearing diabody, two sites for PD-1 and two for CTLA-4; also called MGD019; PD-1×CTLA-4 bispecific molecule
B1: binds.

From patent publication US20230312756A1 (MacroGenics, published 2023)
